Where a chain is given by its changes, count along the chain named. Names and notes keep the numbering of the source.
B1: CyPPO19 V305L + F360M: variant of CyPPO19 PPO protein (SEQ ID NO: 1) (protein)
chain: MSEVDVAIVGGGLSGLSLAWRLQQSAPQYSVVLLEASDRLGGNITTQTAEGFVWELGPNSFAPTPALLQLIAEVGLQSELIRGDRHLPRYIYWRGQLYPLQPTRPLALATSNLLSPWGKVRAALGALGFVPPYLGSGDESVNSFFRRHLGQEVAERLVAPFVSGVYAGDPQQLSAAAAFRRIAQLEKLGGGLIAGALHLRRQQAPKPKPPTSVQMRPGELGSFKEGLAALPRAIAQQLKAPIHLQTPVQEITPDPKGGYLLRSGEQTWRARSVVLATPAYQTAELVAPFQPAIARVLATIPYPTLACVVLAYPAGLGRSVRPGFGVLIPRSQGIRTLGTIWSSCLFPQRTPAGWQVFTSMIGGATDPDLASLSEEAIVQQVQQDLNRLLDLPAAKARLLGMKVWRRAIPQYMVGYPEQWQQVTHALSQTPGLFLCSNYAEGVALGDRVEHGNRTAAAVAAYLSGGQP
modifications: Synthetic_PPO of Thermosynechococcus elongatus PKUAC-SCTE542 (comprising GenBank No. CP032152.1)
B2: CyPPO19 V305M + F360V: variant of CyPPO19 PPO protein (SEQ ID NO: 1) (protein)
chain: B1 chain with L305M, M360V
modifications: Synthetic_PPO of Thermosynechococcus elongatus PKUAC-SCTE542 (comprising GenBank No. CP032152.1)
B3: CyPPO19 V305M + F360M: variant of CyPPO19 PPO protein (SEQ ID NO: 1) (protein)
chain: B1 chain with L305M
modifications: Synthetic_PPO of Thermosynechococcus elongatus PKUAC-SCTE542 (comprising GenBank No. CP032152.1)

Each molecule was assayed on PPO-deficient BT3 E. coli (ΔPPO) (assay: PPO-inhibiting herbicide tolerance test of PPO variants in E. coli (growth on herbicide-containing LB agar)). Details: CyPPO19 variants in BT3 (ΔPPO) E. coli; LB agar with 0 to 2,000 μM herbicide, 37° C., dark, 16-20 hours.
Assay type: cell-based
Summary of the method: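 Tolerance was scored against wild-type enzyme: '−' for equal growth, one '+' per 10-fold gain, up to '+++++'. ΔPPO BT3 cells carrying variant plasmids, spotted as a 10-fold dilution series from OD600=0.5, grew 16-20 h at 37° C. in the dark on ampicillin LB agar containing 0 to 2,000 μM herbicide.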

| Molecule | tolerance level relative to wild type, Carfentrazone | tolerance level relative to wild type, Flumioxazin | tolerance level relative to wild type, Fomesafen | tolerance level relative to wild type, Oxyfluorfen | tolerance level relative to wild type, Saflufenacil | tolerance level relative to wild type, Sulfentrazone | tolerance level relative to wild type, Tiafenacil |
| --- | --- | --- | --- | --- | --- | --- | --- |
| B1 | + (‘+’ per each 10-fold resistance) | ++++ (‘+’ per each 10-fold resistance) | +++ (‘+’ per each 10-fold resistance) | ++ (‘+’ per each 10-fold resistance) | ++++ (‘+’ per each 10-fold resistance) | + (‘+’ per each 10-fold resistance) | +++ (‘+’ per each 10-fold resistance) |
| B2 | + (‘+’ per each 10-fold resistance) | ++++ (‘+’ per each 10-fold resistance) | + (‘+’ per each 10-fold resistance) | ++ (‘+’ per each 10-fold resistance) | ++++ (‘+’ per each 10-fold resistance) | + (‘+’ per each 10-fold resistance) | ++++ (‘+’ per each 10-fold resistance) |
| B3 | + (‘+’ per each 10-fold resistance) | ++++ (‘+’ per each 10-fold resistance) | +++ (‘+’ per each 10-fold resistance) | ++ (‘+’ per each 10-fold resistance) | ++++ (‘+’ per each 10-fold resistance) | ++ (‘+’ per each 10-fold resistance) | ++++ (‘+’ per each 10-fold resistance) |

— US12698507B2, “Methods and compositions for conferring and/or enhancing herbicide tolerance using protoporphyrinogen IX oxidase of various cyanobacteria or variant thereof” (FarmHannong Co., Ltd., priority 2019, dated 2026)
